Reference: patent US20150065436A1, “INHIBITING INTERACTION BETWEEN HIF-1ALPHA AND p300/CBP WITH HYDROGEN BOND SURROGATE-BASED HELICES” (UNIVERSITY OF SOUTHERN CALIFORNIA, priority 2013, published 2015)
code X = not defined here

Experiments:
[1] = target: p300-CH1 (cysteine-histidine rich 1 domain of human coactivator protein p300, amino acid residues 323-423) (human) (UniProt Q09472); test: fluorescence polarization competition: HBS 1 added to the preformed complex of p300-CH1 (300 nM) and Flu-HIF C-TAD (15 nM); displaced ligand: fluorescein-labeled HIF-1α C-TAD786-826
[2] = target: coactivator protein p300 (or the homologous CREB binding protein, CBP) (human) (UniProt Q09472); test: cell-based or functional assay
[3] = target: p300-CH1 (cysteine-histidine rich 1 domain of human coactivator protein p300, amino acid residues 323-423) (human) (UniProt Q09472); test: tryptophan fluorescence spectroscopy; reference peptide 3
[4] = target: p300-CH1 (cysteine-histidine rich 1 domain of human coactivator protein p300, amino acid residues 323-423) (human) (UniProt Q09472); test: fluorescence polarization competition; HBS 1 added to preformed complex of 300 nM p300-CH1 and 15 nM Flu-HIF C-TAD
[5] = target: p300-CH1 (cysteine-histidine rich 1 domain of human coactivator protein p300, amino acid residues 323-423) (human) (UniProt Q09472); test: tryptophan (Trp403) fluorescence spectroscopy, peptide titrated into 1 µM 15N-labeled p300-CH1
[6] = target: coactivator protein p300 (or the homologous CREB binding protein, CBP) (human), Q09472; test: cell-based or functional assay
[7] = target: p300-CH1 (cysteine-histidine rich 1 domain of human coactivator protein p300, amino acid residues 323-423) (human), Q09472; test: tryptophan (Trp403) fluorescence spectroscopy, peptide titrated into 1 µM 15N-labeled p300-CH1
Chain of p300-CH1 (cysteine-histidine rich 1 domain of human coactivator protein p300, amino acid residues 323-423) (human), Q09472 (Q09472 323-423 limits assumed): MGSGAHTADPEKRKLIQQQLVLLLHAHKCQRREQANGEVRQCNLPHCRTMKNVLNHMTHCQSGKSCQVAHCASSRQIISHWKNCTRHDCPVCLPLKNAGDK

Chain of coactivator protein p300 (or the homologous CREB binding protein, CBP) (human) (Q09472 2-2414 limits assumed): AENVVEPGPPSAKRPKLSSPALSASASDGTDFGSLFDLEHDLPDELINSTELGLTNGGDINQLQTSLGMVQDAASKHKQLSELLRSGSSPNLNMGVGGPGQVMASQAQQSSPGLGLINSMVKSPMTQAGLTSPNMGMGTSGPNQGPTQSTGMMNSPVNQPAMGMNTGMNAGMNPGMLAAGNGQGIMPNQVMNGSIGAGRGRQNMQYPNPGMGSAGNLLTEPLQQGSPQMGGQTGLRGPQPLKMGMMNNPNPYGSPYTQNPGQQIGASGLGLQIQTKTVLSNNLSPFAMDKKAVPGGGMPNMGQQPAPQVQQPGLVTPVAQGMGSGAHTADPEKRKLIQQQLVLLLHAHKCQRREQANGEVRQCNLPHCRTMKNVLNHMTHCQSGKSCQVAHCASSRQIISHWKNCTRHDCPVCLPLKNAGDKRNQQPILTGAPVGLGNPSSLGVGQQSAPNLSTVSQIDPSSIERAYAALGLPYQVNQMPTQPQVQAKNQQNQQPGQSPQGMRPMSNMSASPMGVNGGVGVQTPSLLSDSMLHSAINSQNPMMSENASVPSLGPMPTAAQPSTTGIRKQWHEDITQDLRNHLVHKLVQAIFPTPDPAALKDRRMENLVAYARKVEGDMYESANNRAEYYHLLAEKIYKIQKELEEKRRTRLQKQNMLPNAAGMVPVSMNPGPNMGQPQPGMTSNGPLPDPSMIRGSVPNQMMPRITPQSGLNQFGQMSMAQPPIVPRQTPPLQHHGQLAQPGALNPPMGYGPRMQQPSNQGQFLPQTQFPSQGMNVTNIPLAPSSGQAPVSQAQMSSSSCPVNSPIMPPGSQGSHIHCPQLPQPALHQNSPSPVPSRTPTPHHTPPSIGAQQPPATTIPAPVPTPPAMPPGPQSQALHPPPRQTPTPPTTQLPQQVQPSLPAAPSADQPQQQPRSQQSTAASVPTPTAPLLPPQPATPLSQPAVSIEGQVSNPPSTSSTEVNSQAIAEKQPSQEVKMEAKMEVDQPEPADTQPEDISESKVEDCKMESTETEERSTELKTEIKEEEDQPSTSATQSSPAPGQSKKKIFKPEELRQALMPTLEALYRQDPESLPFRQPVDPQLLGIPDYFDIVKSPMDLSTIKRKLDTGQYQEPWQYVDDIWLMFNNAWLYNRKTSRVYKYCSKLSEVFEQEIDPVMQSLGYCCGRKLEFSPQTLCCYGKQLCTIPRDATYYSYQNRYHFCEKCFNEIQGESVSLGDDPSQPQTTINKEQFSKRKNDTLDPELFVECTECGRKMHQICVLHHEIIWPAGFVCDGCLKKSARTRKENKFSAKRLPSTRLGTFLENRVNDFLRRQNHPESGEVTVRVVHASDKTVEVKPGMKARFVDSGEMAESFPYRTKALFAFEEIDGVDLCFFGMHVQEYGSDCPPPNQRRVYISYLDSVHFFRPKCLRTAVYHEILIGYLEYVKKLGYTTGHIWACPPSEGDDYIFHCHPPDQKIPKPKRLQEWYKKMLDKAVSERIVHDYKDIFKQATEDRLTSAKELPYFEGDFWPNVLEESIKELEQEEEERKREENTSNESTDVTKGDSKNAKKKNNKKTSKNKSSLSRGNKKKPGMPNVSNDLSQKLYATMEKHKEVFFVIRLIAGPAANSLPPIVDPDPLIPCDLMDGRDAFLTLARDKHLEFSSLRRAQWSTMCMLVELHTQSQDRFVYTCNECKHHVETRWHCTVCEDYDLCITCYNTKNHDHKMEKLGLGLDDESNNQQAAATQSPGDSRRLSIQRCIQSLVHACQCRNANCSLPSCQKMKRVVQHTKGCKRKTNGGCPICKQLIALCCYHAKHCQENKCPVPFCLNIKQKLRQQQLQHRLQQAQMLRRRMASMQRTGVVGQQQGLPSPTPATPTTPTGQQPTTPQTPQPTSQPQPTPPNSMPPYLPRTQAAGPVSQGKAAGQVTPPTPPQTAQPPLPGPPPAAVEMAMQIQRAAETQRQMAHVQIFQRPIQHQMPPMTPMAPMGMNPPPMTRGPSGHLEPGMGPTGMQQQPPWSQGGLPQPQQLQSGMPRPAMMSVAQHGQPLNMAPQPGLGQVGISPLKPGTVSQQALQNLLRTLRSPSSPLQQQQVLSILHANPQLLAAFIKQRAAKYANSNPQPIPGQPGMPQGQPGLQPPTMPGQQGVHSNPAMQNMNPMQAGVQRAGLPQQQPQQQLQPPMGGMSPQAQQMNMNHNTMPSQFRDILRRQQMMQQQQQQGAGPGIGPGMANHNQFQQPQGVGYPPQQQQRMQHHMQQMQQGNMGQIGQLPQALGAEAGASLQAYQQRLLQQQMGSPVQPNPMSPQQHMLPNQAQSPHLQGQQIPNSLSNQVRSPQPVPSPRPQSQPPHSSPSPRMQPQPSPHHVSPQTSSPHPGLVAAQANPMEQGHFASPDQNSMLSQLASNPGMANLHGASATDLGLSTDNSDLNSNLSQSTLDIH
Chain of p300-CH1 (cysteine-histidine rich 1 domain of human coactivator protein p300, amino acid residues 323-423) (human) (Q09472 323-423 limits assumed): as the sequence (Q09472 323-423 limits assumed) above
Chain of coactivator protein p300 (or the homologous CREB binding protein, CBP) (human), Q09472 (Q09472 2-2414 limits assumed): as the sequence (Q09472 2-2414 limits assumed) above

B1: HBS 1 (peptide)
chain: {code X}-ELARALDQ-NH2
modifications: not fully specified (residue 3, bridges); reading uncertain; also: hydrogen bond surrogate constraint, places not given here
In the case of B1, the IC50 (read off the curve) [1] is reported as 10 µM, the expression levels of VEGF, qRT-PCR, hypoxic HeLa cells (% reduction at 10 µM) [2] is reported as 50 and the expression levels of VEGF, qRT-PCR, hypoxic HeLa cells (% reduction at 50 µM) [2] is reported as over 60. It also gave an inhibition of SLC2A1 (GLUT1) expression, qRT-PCR, hypoxic HeLa cells [2] of 50 to 60%, a luciferase expression, HRE-luciferase reporter in MDA-MB-231-HRE-Luc cells under hypoxia (% reduction at 50 µM) [2] of 25 and a fold increase in binding affinity over peptide 3 [3] of 9 fold. The Ki [4] was 3.5 µM and the Kd [5] was 690 nM.

In the case of ELARALDQ (modifications not checked) [Peptide 3], the downregulation of SLC2A1 and LOX expression, qRT-PCR, hypoxic HeLa cells [6] is reported as 25% and the Kd [7] is reported as 6.06 µM.
